Data: the supplement of paper PMC9732359
± gives the uncertainty stated by the source.

Experiment: protein stability index of a GFP-peptide fusion (yeast GPS) (PSI 1-4); higher = more stable; sorted into four equal gates, so the index is relative within each strain
Outline: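 Tiled 17-residue peptides from yeast proteins were fused downstream of GFP on a plasmid that also expresses Cherry, and the pooled library was carried in yeast. Mid-log cultures grown in leucine-free medium were sorted into four equal gates by GFP/Cherry fluorescence ratio. Plasmids from each gate were PCR-amplified and Illumina-sequenced, and reads were assigned to strains by barcodes. Each peptide's protein stability index is the sum, over gates, of the gate's read frequency multiplied by its gate number.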

## FDKVEVQVRSVMDPITS [DIS3]
doa10∆
  protein stability index: 2.78 ± 0.07
pdr5∆
  protein stability index: 2.8 ± 0.066
san1∆
  protein stability index: 3.21 ± 0.053
ubr1∆
  protein stability index: 3.04 ± 0.064

## MLGIRSSVKTCFKPMSL [RIP1]
doa10∆
  protein stability index: 2.9 ± 0.074
pdr5∆
  protein stability index: 3.05 ± 0.079
san1∆
  protein stability index: 2.83 ± 0.057
ubr1∆
  protein stability index: 2.9 ± 0.052

## AADVSAVDAKQLAQIRQ [YML103C/NUP188]
doa10∆
  protein stability index: 2.25 ± 0.071
pdr5∆
  protein stability index: 2.94 ± 0.073
san1∆
  protein stability index: 3.25 ± 0.072
ubr1∆
  protein stability index: 2.5 ± 0.057

## LKKVQQQQQAAALANAN [SWI1]
doa10∆
  protein stability index: 1.83 ± 0.063
pdr5∆
  protein stability index: 2.45 ± 0.081
san1∆
  protein stability index: 2.1 ± 0.073
ubr1∆
  protein stability index: 1.78 ± 0.064

## KVQDAIEEEIFDDSSRI [LIN1]
doa10∆
  protein stability index: 3.07 ± 0.1
pdr5∆
  protein stability index: 3.19 ± 0.11
san1∆
  protein stability index: 3.16 ± 0.081
ubr1∆
  protein stability index: 3.06 ± 0.069

## TAKRKSRKRKPKSASNT [IRR1]
doa10∆
  protein stability index: 2.97 ± 0.12
pdr5∆
  protein stability index: 3.21 ± 0.13
san1∆
  protein stability index: 2.6 ± 0.26
ubr1∆
  protein stability index: 3.08 ± 0.055

## NNPKVKTSKRTKRWYKN [RPS11A]
doa10∆
  protein stability index: 3.36 ± 0.091
pdr5∆
  protein stability index: 3.28 ± 0.094
san1∆
  protein stability index: 3.21 ± 0.12
ubr1∆
  protein stability index: 3.19 ± 0.087

## GGNFKDLSTLVHSSSPS [GAL11]
doa10∆
  protein stability index: 1.48 ± 0.056
pdr5∆
  protein stability index: 1.46 ± 0.045
san1∆
  protein stability index: 1.59 ± 0.089
ubr1∆
  protein stability index: 1.38 ± 0.059

## KAKRSNLYTPKAEMPPE [PRP8]
doa10∆
  protein stability index: 2.98 ± 0.084
pdr5∆
  protein stability index: 3.05 ± 0.081
san1∆
  protein stability index: 2.84 ± 0.063
ubr1∆
  protein stability index: 2.89 ± 0.077

## MSTELTVQSERAFQKQP [RPS11A]
doa10∆
  protein stability index: 3.13 ± 0.1
pdr5∆
  protein stability index: 2.97 ± 0.099
san1∆
  protein stability index: 2.98 ± 0.11
ubr1∆
  protein stability index: 2.75 ± 0.076

## RTGPKALPDAVTIIEPK [RPS3]
doa10∆
  protein stability index: 2.97 ± 0.058
pdr5∆
  protein stability index: 3.03 ± 0.066
san1∆
  protein stability index: 3.1 ± 0.059
ubr1∆
  protein stability index: 3.09 ± 0.06

## FFYLRISKKLQFSYLSS [PCI8]
doa10∆
  protein stability index: 1.22 ± 0.076
pdr5∆
  protein stability index: 1.24 ± 0.059
san1∆
  protein stability index: 1.24 ± 0.11
ubr1∆
  protein stability index: 1.33 ± 0.044

## VIDIEIHVLEQDGGIMG [SKI6]
doa10∆
  protein stability index: 2.84 ± 0.076
pdr5∆
  protein stability index: 2.56 ± 0.095
san1∆
  protein stability index: 2.5 ± 0.11
ubr1∆
  protein stability index: 2.85 ± 0.062

## LNKFKKAIFQFVCRGMA [ECM29]
doa10∆
  protein stability index: 2.06 ± 0.1
pdr5∆
  protein stability index: 2.08 ± 0.071
san1∆
  protein stability index: 2.6 ± 0.11
ubr1∆
  protein stability index: 1.92 ± 0.052

## GISSTLVSANNDNNSPH [YLR018C/POM34]
doa10∆
  protein stability index: 2.62 ± 0.051
pdr5∆
  protein stability index: 2.89 ± 0.06
san1∆
  protein stability index: 3.01 ± 0.058
ubr1∆
  protein stability index: 2.96 ± 0.067

## RNTYQSAMGKQAMGVFL [RPB2]
doa10∆
  protein stability index: 1.62 ± 0.097
pdr5∆
  protein stability index: 1.63 ± 0.11
san1∆
  protein stability index: 1.53 ± 0.12
ubr1∆
  protein stability index: 1.79 ± 0.052

## TMGMRALLKLSVKLKQK [DIS3]
doa10∆
  protein stability index: 1.28 ± 0.059
pdr5∆
  protein stability index: 1.59 ± 0.063
san1∆
  protein stability index: 1.21 ± 0.072
ubr1∆
  protein stability index: 1.33 ± 0.07

## YVEAQHKLVFVVRIKGI [RPL7A]
doa10∆
  protein stability index: 1.09 ± 0.058
pdr5∆
  protein stability index: 1.19 ± 0.054
san1∆
  protein stability index: 1.25 ± 0.094
ubr1∆
  protein stability index: 1.21 ± 0.053

## QTLGLESFTEELSNELS [MED1]
doa10∆
  protein stability index: 3.29 ± 0.064
pdr5∆
  protein stability index: 3.1 ± 0.051
san1∆
  protein stability index: 3.06 ± 0.05
ubr1∆
  protein stability index: 3 ± 0.037

## RHMALLVDVMTTQGGLT [RPO21]
doa10∆
  protein stability index: 1.92 ± 0.15
pdr5∆
  protein stability index: 2.38 ± 0.092
san1∆
  protein stability index: 2.44 ± 0.09

## SGQTPVQSKARYTVRTF [RPL11A]
doa10∆
  protein stability index: 2.29 ± 0.094
pdr5∆
  protein stability index: 2.06 ± 0.081
san1∆
  protein stability index: 1.72 ± 0.13
ubr1∆
  protein stability index: 1.71 ± 0.089

## QLWLNSSGDFDDNNNNN [GRR1]
doa10∆
  protein stability index: 3.19 ± 0.076
pdr5∆
  protein stability index: 3.16 ± 0.07
san1∆
  protein stability index: 3.17 ± 0.1
ubr1∆
  protein stability index: 3.06 ± 0.055

## GTLDKNSQTVSGTPITQ [SNF2]
doa10∆
  protein stability index: 2.83 ± 0.055
pdr5∆
  protein stability index: 2.71 ± 0.055
san1∆
  protein stability index: 2.69 ± 0.052
ubr1∆
  protein stability index: 2.65 ± 0.044

## VLRLATNKGPLAQIWLA [MCD1]
doa10∆
  protein stability index: 1.93 ± 0.11
pdr5∆
  protein stability index: 1.31 ± 0.052
san1∆
  protein stability index: 1.51 ± 0.15
ubr1∆
  protein stability index: 1.17 ± 0.055

## EAQANLLTAKHGMTLRE [RPO21]
doa10∆
  protein stability index: 2.98 ± 0.18
pdr5∆
  protein stability index: 3.11 ± 0.099
san1∆
  protein stability index: 3.14 ± 0.063
ubr1∆
  protein stability index: 2.8 ± 0.11

## LNAINNAEKTGKRQVLI [RPS22A]
pdr5∆
  protein stability index: 2.3 ± 0.26

## GRRLNIRQYALATAHIY [SSN8]
doa10∆
  protein stability index: 1.53 ± 0.055
pdr5∆
  protein stability index: 1.32 ± 0.057
san1∆
  protein stability index: 1.17 ± 0.17
ubr1∆
  protein stability index: 1.09 ± 0.067
